{"source": "patent US20220119490A1", "about": "(Genentech, published 2022)", "binders": {"B1": {"name": "LRRC4B extracellular domain (receptor, human, UniProt Q9NT99 36-576, looked up)", "chain": "AGGGGVAVTSAAGGGSPPATSCPVACSCSNQASRVICTRRDLAEVPASIPVNTRYLNLQENGIQVIRTDTFKHLRHLEILQLSKNLVRKIEVGAFNGLPSLNTLELFDNRLTTVPTQAFEYLSKLRELWLRNNPIESIPSYAFNRVPSLRRLDLGELKRLEYISEAAFEGLVNLRYLNLGMCNLKDIPNLTALVRLEELELSGNRLDLIRPGSFQGLTSLRKLWLMHAQVATIERNAFDDLKSLEELNLSHNNLMSLPHDLFTPLHRLERVHLNHNPWHCNCDVLWLSWWLKETVPSNTTCCARCHAPAGLKGRYIGELDQSHFTCYAPVIVEPPTDLNVTEGMAAELKCRTGTSMTSVNWLTPNGTLMTHGSYRVRISVLHDGTLNFTNVTVQDTGQYTCMVTNSAGNTTASATLNVSAVDPVAAGGTGSGGGGPGGSGGVGGGSGGYTYFTTVTVETLETQPGEEALQPRGTEKEPPGPTTDGVWGGGRPGDAAGPASSSTTAPAPRSSRPTEKAFTVPITDVTENALKDLDDVMKTTK", "notes": "extracellular domain; ECD-Fc prey; also called NGL-3; netrin-G ligand-3"}}, "key": {"[1]": {"molecular_target": "T1, PTPRD G285E variant extracellular domain (human, UniProt P23468 21-1265)", "T1 construct": "extracellular domain; also called IG3 mutant", "T1 sequence (looked up)": "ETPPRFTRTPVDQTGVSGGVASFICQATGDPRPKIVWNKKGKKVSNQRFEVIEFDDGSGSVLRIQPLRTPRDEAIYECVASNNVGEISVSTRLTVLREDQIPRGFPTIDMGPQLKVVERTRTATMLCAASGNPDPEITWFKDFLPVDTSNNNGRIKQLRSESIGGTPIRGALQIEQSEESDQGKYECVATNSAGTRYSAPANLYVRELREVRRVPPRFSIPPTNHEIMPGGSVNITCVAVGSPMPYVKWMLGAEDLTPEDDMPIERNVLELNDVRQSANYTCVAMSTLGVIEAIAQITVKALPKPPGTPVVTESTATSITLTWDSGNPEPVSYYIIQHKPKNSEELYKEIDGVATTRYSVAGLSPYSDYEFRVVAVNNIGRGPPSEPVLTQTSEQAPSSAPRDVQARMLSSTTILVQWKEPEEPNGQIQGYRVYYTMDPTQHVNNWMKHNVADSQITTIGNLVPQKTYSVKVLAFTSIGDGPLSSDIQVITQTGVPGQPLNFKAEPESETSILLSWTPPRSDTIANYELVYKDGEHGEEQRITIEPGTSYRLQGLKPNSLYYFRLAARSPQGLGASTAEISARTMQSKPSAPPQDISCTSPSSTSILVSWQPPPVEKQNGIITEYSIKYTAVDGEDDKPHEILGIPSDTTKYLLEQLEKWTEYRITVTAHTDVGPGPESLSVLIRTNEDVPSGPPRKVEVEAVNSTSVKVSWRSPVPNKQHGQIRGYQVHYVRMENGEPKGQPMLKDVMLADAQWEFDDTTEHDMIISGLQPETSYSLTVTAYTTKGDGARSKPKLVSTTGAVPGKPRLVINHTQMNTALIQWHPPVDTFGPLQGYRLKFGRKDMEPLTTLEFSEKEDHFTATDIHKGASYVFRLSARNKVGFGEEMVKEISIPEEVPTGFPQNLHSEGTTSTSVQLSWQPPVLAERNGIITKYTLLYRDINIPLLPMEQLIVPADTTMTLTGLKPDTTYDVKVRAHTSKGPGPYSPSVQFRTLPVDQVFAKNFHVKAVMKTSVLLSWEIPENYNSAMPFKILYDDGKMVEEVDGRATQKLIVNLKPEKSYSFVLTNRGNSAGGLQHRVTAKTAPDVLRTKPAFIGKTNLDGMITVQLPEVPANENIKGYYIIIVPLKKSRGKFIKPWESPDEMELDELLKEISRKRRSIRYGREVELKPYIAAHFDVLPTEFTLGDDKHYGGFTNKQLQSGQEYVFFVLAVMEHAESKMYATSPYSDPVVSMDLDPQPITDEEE", "assay": "extracellular interaction screen: pentameric PTPRD variant ECD on ECD-Fc prey (FIG. 5L)"}, "[2]": {"molecular_target": "T2, PTPRD R232C R233C variant extracellular domain (human, UniProt P23468 21-1265)", "T2 construct": "extracellular domain; also called R232C/R233C double mutant; IG2 mutant", "T2 sequence (looked up)": "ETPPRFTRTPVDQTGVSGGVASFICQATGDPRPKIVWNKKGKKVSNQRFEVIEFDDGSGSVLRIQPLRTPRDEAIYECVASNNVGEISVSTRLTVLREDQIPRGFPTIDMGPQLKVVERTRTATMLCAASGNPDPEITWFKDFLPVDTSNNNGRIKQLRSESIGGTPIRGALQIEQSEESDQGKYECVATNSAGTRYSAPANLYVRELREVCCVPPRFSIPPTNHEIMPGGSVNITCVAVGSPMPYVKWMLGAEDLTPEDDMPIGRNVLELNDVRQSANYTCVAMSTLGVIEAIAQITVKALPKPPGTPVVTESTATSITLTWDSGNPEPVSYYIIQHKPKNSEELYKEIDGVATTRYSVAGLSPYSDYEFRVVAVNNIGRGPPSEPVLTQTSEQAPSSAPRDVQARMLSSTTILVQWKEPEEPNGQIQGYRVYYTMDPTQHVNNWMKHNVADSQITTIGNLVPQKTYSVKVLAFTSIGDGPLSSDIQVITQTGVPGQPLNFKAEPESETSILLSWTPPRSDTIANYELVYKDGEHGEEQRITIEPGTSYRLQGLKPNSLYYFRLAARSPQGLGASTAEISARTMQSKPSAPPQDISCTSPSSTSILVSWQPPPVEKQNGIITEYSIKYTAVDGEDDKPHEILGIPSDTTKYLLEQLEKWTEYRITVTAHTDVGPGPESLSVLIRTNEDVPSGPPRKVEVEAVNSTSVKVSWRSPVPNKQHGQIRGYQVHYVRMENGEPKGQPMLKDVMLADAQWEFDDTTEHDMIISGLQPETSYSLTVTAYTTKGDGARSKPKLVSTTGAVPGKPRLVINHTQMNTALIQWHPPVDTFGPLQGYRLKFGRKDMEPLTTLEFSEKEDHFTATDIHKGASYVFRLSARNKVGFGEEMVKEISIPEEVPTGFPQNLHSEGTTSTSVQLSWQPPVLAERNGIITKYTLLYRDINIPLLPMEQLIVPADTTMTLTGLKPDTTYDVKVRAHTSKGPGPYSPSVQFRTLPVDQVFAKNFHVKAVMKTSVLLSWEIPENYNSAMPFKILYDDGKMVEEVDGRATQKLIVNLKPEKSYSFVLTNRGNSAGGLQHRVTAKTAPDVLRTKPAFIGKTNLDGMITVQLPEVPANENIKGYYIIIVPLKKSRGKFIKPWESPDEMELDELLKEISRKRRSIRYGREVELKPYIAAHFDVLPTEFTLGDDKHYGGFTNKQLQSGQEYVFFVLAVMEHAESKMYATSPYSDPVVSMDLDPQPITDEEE", "assay": "extracellular interaction screen: pentameric PTPRD variant ECD on ECD-Fc prey (FIG. 5L)"}}}
{"binder": "B1", "values": [{"measurement": "binding result", "setting": "[1]", "result": "no binding"}, {"measurement": "binding result", "setting": "[2]", "result": "no binding"}]}
